Source: article PMC4933465 (The Journal of Biological Chemistry, 2016)
Substitutions are numbered along the chain they refer to. In names and notes the source's numbering stands.

B1: Link_TSG6_T (K55A/K69A/K76A) (domain or fragment, human)
chain: GVYHREARSGKYKLTYAEAAAVCEFEGGHLATYAQLEAARAIGFHVCAAGWMAKGRVGYPIVKPGPNCGFGKTGIIDYGIRLNRSERWDAYCYNPHAK
notes: Link module of human TSG-6 with three lysines changed to alanine; residues numbered as in the pre-protein
B2: CCL5 (ligand, UniProt P13501 24-91, looked up)
chain: SPYSSDTTPCCFAYIARPLPRAHIKEYFYTSGKCSNPAVVFVTRKNRQVCANPEKKWVREYINSLEMS
notes: chemokine CCL5; source: E. coli, purified
B3: CCL7 (ligand)
chain: not shown
notes: chemokine CCL7; source: E. coli, purified
B4: CXCL11 (ligand, UniProt O14625 22-94, looked up)
chain: FPMFKRGRCLCIGPGVKAVKVADIEKASIMYPSNNCDKIEVIITLKENKGQRCLNPKSKQARLIIKKVERKNF
notes: chemokine CXCL11; CXCL11 is not in the methods' list of chemokines made in E. coli
B5: CCL21 (ligand, UniProt O00585 24-134, looked up)
chain: SDGGAQDCCLKYSQRKIPAKVVRSYRKQEPSLGCSIPAILFLPRKRSQAELCADPKELWVQQLMQHLDKTPSPQKPAQGCRKDRGASKTGKKGKGSKGCKRTERSQTPKGP
notes: chemokine CCL21; source: E. coli, purified
B6: Biotinylated CCL21 (ligand, UniProt O00585 24-134, looked up)
chain: B5 chain
modifications: biotin
notes: chemokine CCL21, biotinylated; also called biotinylated chemokine CCL21; source: E. coli, purified
B7: CCL19 (ligand, UniProt Q99731 22-98, looked up)
chain: GTNDAEDCCLSVTQKPIPGYIVRNFHYLLIKDGCRVPAVVFTTLRGRQLCAPPDQPWVERIIQRLQRTSAKMKRRSS
notes: chemokine CCL19; source: E. coli, purified
B8: CCL27 (ligand, UniProt Q9Y4X3 25-112, looked up)
chain: FLLPPSTACCTQLYRKPLSDKLLRKVIQVELQEADGDCHLQAFVLHLAQRSICIHPQNPSLSQWFEHQERKLHGTLPKLNFGMLRKMG
notes: chemokine CCL27; source: E. coli, purified
B9: CCL27 K25A (ligand, UniProt Q9Y4X3 25-112, looked up)
chain: B8 chain with K25A
notes: chemokine CCL27 with K25A; also called CCL27 K25A mutant; source: E. coli, purified

Assays:
Details in all cases: both partners purified
[1] = biological target: B7; test: ELISA; solid phase competition: chemokine (250 nM) coated on MaxiSorp plates, biotinylated heparin (25 ng/well) with Link_TSG6_T (0–1000 nM); 10 mM NaOAc, 150 mM NaCl, 2% Tween 20, pH 6.0, room temperature, 4 h; bound heparin detected
[2] = biological target: B3; test: as above
[3] = biological target: T1, CCL2 (UniProt P13500 24-99); test: as above
T1 construct: chemokine CCL2; source: E. coli, purified

[4] = biological target: B4; test: as above
[5] = biological target: T2, Link_TSG6 (recombinant Link module from human TSG-6) (human, UniProt P98066 36-133); test: SPR; Link_TSG6 amine-coupled to a C1 chip (800–1000 RU), chemokine as analyte; BIAcore 3000; 10 mM HEPES, 150 mM NaCl, 0.05% Tween 20, pH 7.4; 40 μl/min; 1:1 Langmuir model; apparent affinities
T2 construct: Link module of human TSG-6 (TNF-stimulated gene/protein 6); residues numbered as in the pre-protein; also called TSG-6 Link module

[6] = biological target: T2, Link_TSG6 (recombinant Link module from …); test: as above; remark: listed apart in the source
[7] = biological target: T2, Link_TSG6 (recombinant Link module from …); test: plate binding assay on a collagen-coated surface, labeled streptavidin detection; wells coated with type I collagen (100 μg/ml); biotinylated chemokine (10, 50 or 200 nM) alone or pre-incubated 30 min at 37 °C with different molar ratios of Link_TSG6 in cPBS, then 1 h on the surface; streptavidin IRDye 800CW

T1 sequence (P13500 24-99): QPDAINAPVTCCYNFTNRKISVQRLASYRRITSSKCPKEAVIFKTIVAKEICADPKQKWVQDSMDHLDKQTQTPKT
Sequence of CCL7 (P80098 24-99): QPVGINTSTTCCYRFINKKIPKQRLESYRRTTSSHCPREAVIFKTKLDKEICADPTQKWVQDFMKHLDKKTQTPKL

| Kd [6] | koff [6] | kon [6] | Binder | other results |
| --- | --- | --- | --- | --- |
|  |  |  | B1 | IC50 [1]: 55 nM; IC50 [2]: 159 nM; IC50 [3]: 84 nM; IC50 [4]: 168 nM |
|  |  |  | B2 | binding result [5]: binds |
| 18.4 nM | 0.0016 s⁻¹ | 87000 M⁻¹ s⁻¹ | B3 |  |
| 5.2 nM | 0.0013 s⁻¹ | 250000 M⁻¹ s⁻¹ | B4 |  |
| 4.8 nM | 0.0034 s⁻¹ | 710000 M⁻¹ s⁻¹ | B5 |  |
|  |  |  | B6 | binding result [7]: binds |
| 17.5 nM | 0.0028 s⁻¹ | 160000 M⁻¹ s⁻¹ | B7 |  |
| 85.2 nM | 0.0023 s⁻¹ | 27000 M⁻¹ s⁻¹ | B8 |  |
| 753 nM | 0.0061 s⁻¹ | 8100 M⁻¹ s⁻¹ | B9 |  |
